Results on one sequence are retold here after patent US8093209B2, “Methods of suppressing microglial activation and systemic inflammatory responses” (Cognosci, Incorporated, priority 2002, dated 2012).

In data set [1] the test system is primary hippocampal neurons. Particulars: cited from earlier work.
The test system of data set [2] is enriched microglia primary cultures from apoE deficient mouse pups. Kind of data set: LPS-stimulated nitric oxide (nitrite) secretion by enriched microglia primary cultures. The format is cell-based. The settings on record: peptide 0 μM to 1000 μM, LPS 100 ng/ml, after 48 hours. How it is done: Culture preparation and characterization: Mixed glial cell cultures were prepared from: (a) wildtype (C57B16; Jackson Laboratories) mouse pups; (b) ApoE deficient mutant mouse pups (ApoE-deficient mice), and (c) transgenic mouse pups expressing human ApoE3 but not murine ApoE (ApoE3 mice). See Xu et al., Neurobiol. Dis. 3:229 (1996) regarding the creation and characterization of the transgenic mice. Mixed glial cell cultures were prepared as has been described. See McMillian et al., Neurochem. 58:1308 (1992); Laskowitz et al., J. Neuroimmunol. 76:70 (1997). Briefly, brains were removed from 2-4 day old pups, cleaned of membranes and blood vessels, mechanically dispersed in Ca^+2-free media, and collected by centrifugation. Cells were then plated in DMEM/F12 (containing 10% fetal calf serum, 1% penicillin/streptomycin, Gibco #15070), one brain per 25 cm flask. […]
Nitrite Quantification The production of NO was assessed by measuring the accumulation of nitrite, which was quantified using a calorimetric reaction with Griess reagent (0.1% N-1-naphthylethylenediamine dihydrochloride, 1% sulfanilamide, and 2.5% H3PO4). Absorbance was measured at 570 nm by spectrophotometry. […]
Enriched microglia primary cultures were prepared from the brains of apoE deficient mouse pups as described in Example 1, above. […] Nitric oxide production was assessed as described in Example 1. […]

“LRKLRKRLL LRKLRKRLL (LRKLRKRLLLRKLRKRLL; fragment of ApoE containing LDL receptor binding site) [SEQ ID NO:3]”: the neuronal cell death entry in data set [1] was “induced neuronal cell death”. For the same sequence, the “nitric oxide secretion by activated microglia” value in data set [2] is given as “dose-dependent decrease in nitric oxide secretion”.
